IntAct's records for PubMed 21321230

B1: Netrin receptor DCC (Rattus norvegicus (Rat)), Q63155 (parent)
chain: MENSLGCVWVPKLAFVLFGASLLSAHLQVTGFQIKPFTSLHFVSEPSDAVTMRGGNVLLNCSAESDRGVPVIKWKKDGLILALGMDDRKQQLPNGSLLIQNILHSRHHKPDEGLYQCEASLGDSGSIISRTAKVMVAGPLRFLSQTESITAFMGDTVLLKCEVIGDPMPTIHWQKNQQDLNPIPGDSRVVVLPSGALQISRLQPGDSGVYRCSARNPASTRTGNEAEVRILSDPGLHRQLYFLQRPSNVIAIEGKDAVLECCVSGYPPPSFTWLRGEEVIQLRSKKYSLLGGSNLLISNVTDDDSGTYTCVVTYKNENISASAELTVLVPPWFLNHPSNLYAYESMDIEFECAVSGKPVPTVNWMKNGDVVIPSDYFQIVGGSNLRILGVVKSDEGFYQCVAENEAGNAQSSAQLIVPKPAIPSSSILPSAPRDVVPVLVSSRFVRLSWRPPAEAKGNIQTFTVFFSREGDNRERALNTTQPGSLQLTVGNLKPEAMYTFRVVAYNEWGPGESSQPIKVATQPELQVPGPVENLHAVSASPTSILITWEPPAYANGPVQGYRLFCTEVSTGKEQNIEVDGLSYKLEGLKKFTEYTLRFLAYNRYGPGVSTDDITVVTLSDVPSAPPQNVSLEVVNSRSIKVSWLPPPSGTQNGFITGYKIRHRKTTRRGEMETLEPNNLWYLFTGLEKGSQYSFQVSAMTVNGTGPPSNWYTAETPENDLDESQVPDQPSSLHVRPQTNCIIMSWTPPLNPNIVVRGYIIGYGVGSPYAETVRVDSKQRYYSIERLESSSHYVISLKAFNNAGEGVPLYESATTRSITDPTDPVDYYPLLDDFPTSGPDVSTPMLPPVGVQAVALTHEAVRVSWADNSVPKNQKTSDVRLYTVRWRTSFSASAKYKSEDTTSLSYTATGLKPNTMYEFSVMVTKNRRSSTWSMTAHATTYEAAPTSAPKDLTVITREGKPRAVIVSWQPPLEANGKITAYILFYTLDKNIPIDDWIMETISGDRLTHQIMDLSLDTMYYFRIQARNAKGVGPLSDPILFRTLKVEHPDKMANDQGRHGDGGYWPVDTNLIDRSTLNEPPIGQMHPPHGSVTPQKNSNLLVITVVTVGVLTVLVVVIVAVICTRRSSAQQRKKRATHSASKRKGSQKDLRPPDLWIHHEEMEMKNIEKPAGTDPAGRGSPIQSCQDLTPVSHSQSESQMGSKSASHSGQDTEEAGSSMSTLERSLAARRATRTKLMIPMEAQSNNPAVVSAIPVPTLESAQYPGILPSPTCGYPHPQFTLRPVPFPTLSVDRGFGAGRTVSEGPTAQQQPMLPPAQPEHPSSEEAPSRTIPTACVRPTHPLRSFANPLLPPPMSAIEPKVPYTPLLSQPGPTLPKTHVKTASLGLAGKARSPLLPVSVPTAPEVSEESHKPTEDPASVYEQDDLSEQMASLEGLMKQLNAITGSAF

Variants of: B1
Settings: with myo10_human MYO10, Q9HD67
myo10_human MYO10, Q9HD67, sequence (Q9HD67 whole entry): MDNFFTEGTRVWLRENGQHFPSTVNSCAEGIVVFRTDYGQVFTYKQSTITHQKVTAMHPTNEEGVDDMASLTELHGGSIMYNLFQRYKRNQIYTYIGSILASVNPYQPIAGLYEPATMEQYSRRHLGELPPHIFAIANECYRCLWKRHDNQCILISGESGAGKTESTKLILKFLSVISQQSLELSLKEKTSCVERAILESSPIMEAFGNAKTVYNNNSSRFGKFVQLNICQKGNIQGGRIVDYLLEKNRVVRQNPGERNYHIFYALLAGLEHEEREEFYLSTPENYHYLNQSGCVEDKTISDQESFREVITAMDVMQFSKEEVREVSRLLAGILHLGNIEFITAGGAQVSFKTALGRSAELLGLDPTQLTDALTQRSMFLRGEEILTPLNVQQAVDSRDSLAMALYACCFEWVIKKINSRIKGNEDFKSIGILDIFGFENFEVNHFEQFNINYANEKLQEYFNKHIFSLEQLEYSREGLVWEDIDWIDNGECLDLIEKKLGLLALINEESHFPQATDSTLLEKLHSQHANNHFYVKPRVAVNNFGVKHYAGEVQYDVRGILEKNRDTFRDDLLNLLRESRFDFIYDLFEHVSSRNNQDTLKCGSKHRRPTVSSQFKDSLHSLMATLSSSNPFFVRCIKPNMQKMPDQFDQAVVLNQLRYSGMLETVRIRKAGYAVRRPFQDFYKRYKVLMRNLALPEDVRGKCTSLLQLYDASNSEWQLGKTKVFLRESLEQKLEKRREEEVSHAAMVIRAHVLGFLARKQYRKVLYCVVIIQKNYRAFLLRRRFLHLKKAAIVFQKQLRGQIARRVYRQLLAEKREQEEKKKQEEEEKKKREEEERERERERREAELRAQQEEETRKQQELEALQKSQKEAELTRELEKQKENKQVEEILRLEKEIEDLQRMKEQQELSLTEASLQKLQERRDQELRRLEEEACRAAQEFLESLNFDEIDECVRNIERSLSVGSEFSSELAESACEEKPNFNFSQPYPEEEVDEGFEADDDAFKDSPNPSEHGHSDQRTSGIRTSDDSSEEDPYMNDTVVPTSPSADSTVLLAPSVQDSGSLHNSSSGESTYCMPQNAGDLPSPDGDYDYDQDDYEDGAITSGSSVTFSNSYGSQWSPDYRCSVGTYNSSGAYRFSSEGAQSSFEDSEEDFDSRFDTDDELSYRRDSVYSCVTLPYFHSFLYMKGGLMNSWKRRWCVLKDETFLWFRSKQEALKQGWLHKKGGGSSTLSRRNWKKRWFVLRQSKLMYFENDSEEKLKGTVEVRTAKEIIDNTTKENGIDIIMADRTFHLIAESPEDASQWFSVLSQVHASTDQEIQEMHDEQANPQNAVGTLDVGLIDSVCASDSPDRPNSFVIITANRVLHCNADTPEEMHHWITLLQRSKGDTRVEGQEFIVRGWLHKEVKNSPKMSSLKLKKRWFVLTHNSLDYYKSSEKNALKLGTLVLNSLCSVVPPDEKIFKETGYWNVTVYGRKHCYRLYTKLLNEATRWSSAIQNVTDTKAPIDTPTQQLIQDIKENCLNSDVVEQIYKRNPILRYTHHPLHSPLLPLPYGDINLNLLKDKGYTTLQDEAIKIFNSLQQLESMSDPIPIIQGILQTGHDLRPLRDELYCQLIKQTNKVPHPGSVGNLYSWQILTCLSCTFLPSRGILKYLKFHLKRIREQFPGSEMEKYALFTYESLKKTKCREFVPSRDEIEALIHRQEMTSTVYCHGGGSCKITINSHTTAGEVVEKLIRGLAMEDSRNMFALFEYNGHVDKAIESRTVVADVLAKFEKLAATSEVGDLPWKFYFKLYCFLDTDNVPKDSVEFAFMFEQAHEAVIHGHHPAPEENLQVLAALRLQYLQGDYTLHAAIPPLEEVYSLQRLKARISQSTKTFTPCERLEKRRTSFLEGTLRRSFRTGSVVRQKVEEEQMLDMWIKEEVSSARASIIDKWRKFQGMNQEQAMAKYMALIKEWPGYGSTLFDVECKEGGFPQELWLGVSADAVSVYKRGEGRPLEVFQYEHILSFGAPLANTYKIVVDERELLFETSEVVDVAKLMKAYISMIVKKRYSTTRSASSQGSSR
With L1433A the “effect of a mutation on the interaction” value was “disrupting interaction strength”.
In the case of L1437A, the “effect of a mutation on the interaction” value is reported as “disrupting interaction strength”.
